# Measured values reported in the supplement of paper PMC10567573.
# ± gives the standard deviation.
# Assay: protein stability index of a GFP-peptide fusion (GPS, HEK-293T) (PSI 1-6); higher = more stable
# Conditions: c terminus: a fixed tail appended
# 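Note: 24-mer peptide tiles fused after GFP, lentivirally expressed, FACS-sorted into six equal bins by GFP/DsRed ratio, decoded by Illumina sequencing, PSI is the read-weighted mean bin number.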
Sequence,protein stability index (treatment: DMSO),"protein stability index (treatment: MLN4924 1 uM, 8 h)"
GSANDYKDTLGKGSSLSAPSKKTS [KRT71],5.33 ± 0.22,5.3 ± 0.22
VQEDLEAEFQSLFSLLEELKEGML [FSD1],2.99 ± 0.57,3.01 ± 0.53
HLLIPELGACVAPGGNLIVELARY [DNAAF3],2.28 ± 0.085,2.25 ± 0.24
VLAAKERRCGELKRKLGLTALVGL [TPD52L3],2.44 ± 0.24,2.07 ± 0.23
SSADDASAWSNIQEAPLQDDSCLN [FAN1],5.26 ± 0.26,5.33 ± 0.27
DLDNYFTARRLLSQVRALDRFQVP [NFE2L1],2.5 ± 0.2,2.35 ± 0.3
IFDDNFIEERKQGLEQFINKVAGH [SNX3],3.03 ± 0.39,3.32 ± 0.44
GVLHKHQRALHKYSLMKRQMMSAT [SNX8],2.4 ± 0.18,2.58 ± 0.24
RLVVEFPATGGAIPSWQIRTVKLI [PKD2L1],2.62 ± 0.53,2.16 ± 0.36
TFNRWGTLLAVGCNDGRIVIWDFL [RBBP5],2.35 ± 0.41,2.18 ± 0.27
ARELAITDSEHSDAEVSCTDNGTF [RETREG3],5.56 ± 0.28,5.592 ± 0.033
SAAWMKERTSPGAIHYCASTSEES [SPDEF],4.66 ± 0.13,4.72 ± 0.3
FTTSILRHWCMKHDELLAEHIKSL [INTS3],2.22 ± 0.2,2.17 ± 0.18
VAEAFRALASAQCPQFGIPRKRLK [SPOPL],2.73 ± 0.42,3 ± 0.34
GRDELGGGRRPGTSPALLQGTAEE [CDKN1A],5.4 ± 0.34,5.41 ± 0.24
DAFWWAVVSMTTVGYGDMYPVTIG [KCNA1],3.45 ± 0.23,3.33 ± 0.49
IVETVCIVWFSFEFVVRCFACPSQ [KCNA4],3.04 ± 0.21,2.66 ± 0.18
FSGWISALVVPKGNTAVSVLMLLV [SCAMP3],2.87 ± 0.39,2.73 ± 0.46
DVGDWRKNIEEKSGMEGRKKMFES [TNNI2],4.3 ± 0.14,4.38 ± 0.25
RAPEVLLQSTYATPVDMWSVGCIF [CDK4],2.7 ± 0.28,2.35 ± 0.34
FSEIISSISDVKFSHSGRYIMTRD [PPP2R2B],2.52 ± 0.28,2.53 ± 0.29
SPMSAATLGGLNPSPSEVITPWTP [SMTNL2],4.44 ± 0.18,4.46 ± 0.28
GVKRKADTTTPTTSAITASRSESP [BRD3],5.22 ± 0.15,5.19 ± 0.16

Sequence,protein stability index (treatment: DMSO),"protein stability index (treatment: MLN4924 1 uM, 8 h)"
EPCQLPSESPGSLSEVLAQPQGAL [DNAAF3],5.16 ± 0.22,5.13 ± 0.39
LPQDPHTKKALEAHCRADELASQD [PPP2R5C],5.04 ± 0.2,5.17 ± 0.27
FPDGDDEFDSPHEDIVFETDHILE [STX11],5.19 ± 0.25,5.29 ± 0.16
QTGDLLSTFHTISPSFQLKAAALP [PLAGL1],2.6 ± 0.22,2.67 ± 0.22
RQKIWNNMPKDHPVSCCLGLLLES [DYNC2LI1],2.25 ± 0.23,2.34 ± 0.28
RRENSTLDVECHEKEKHVNQLQTK [SASS6],5.13 ± 0.11,5.26 ± 0.23
AHVNTLHSGTKRDPKEDVFQQNHL [PHTF1],4.31 ± 0.15,4.28 ± 0.18
SSSSQIGNDSFQLQVTEDVNSSIK [CLCN6],5.14 ± 0.06,4.87 ± 0.18
PLLSASVTGHTNIVDFLTHHAQTS [FEM1C],3.11 ± 0.27,3.11 ± 0.23
LVPILIEAARNGKMKFVIGNGKNL [NSDHL],2.52 ± 0.3,2.36 ± 0.28
RQRSSLAKINIVYQELNYRSVEEA [SCNN1D],3.41 ± 0.24,3.44 ± 0.22
NEEIQSFIYSLKQMLLNVEANSAK [FSD1],2.99 ± 0.73,2.72 ± 0.38
EMPKSSDFLIHPPERSDLTLYLIV [PCDHGC5],2.83 ± 0.47,2.72 ± 0.3
SLLDELLEVDHIRTIYHMFIALLI [SOAT1],2.01 ± 0.27,2.11 ± 0.56
DSRRVTKENSHQVKEELSQKFDTL [TRIM63],5.08 ± 0.066,5.02 ± 0.28
VIAYDHSRVLLSAIEGIPGSDYVN [PTPRD],1.89 ± 0.5,1.79 ± 0.28
EREVRAKNGRVDSEDRRSRHCPYL [USP39],4.39 ± 0.24,4.5 ± 0.32
LAQDWERCNTTCGRGVKKRLVLCM [ADAMTSL2],1.56 ± 0.33,1.79 ± 0.19
RLRDAGFRVTLWVHPFVNYNSSRF [MYORG],2.61 ± 0.61,2.44 ± 0.15
LPYQRRYRERRDSDTYRCEERSPS [CLK3],4.77 ± 0.12,4.81 ± 0.22
RRSQQQQVPVVDFQAELRQAFLAE [SNURF],3.84 ± 0.37,3.86 ± 0.28
AYLVTVRGNLSILAAVLVEPKLHT [OR3A1],3.21 ± 0.75,2.71 ± 0.68
